Laboratory results published in patent US20250002588A1 (DIAGONAL THERAPEUTICS, published 2025).

B1: PRO005 (bispecific antibody)
chain: EVQLLESGGGLVQPGGSLRLSCAASGFTFSSYAMSWVRQAPGKGLEWVANINQDGSEKNYVDSMRGRFTISRDNSKNTLYLQMNSLRAEDTAVYYCAREFDYWGQGTLVTVTSSGGGGSGGGGSGGGGSQSVLAQPPSASGTPGQRVTISCSGSSSNIGSNYVYWYQQLPGTAPKLLIYGNNKRPSGVPDRFSGSKSGTSASLAISGLRSEDEADYYCAAWDDSLNGRVFGGGTKLTVLDKTHTCPPCPAPEAAGAPSVFLFPPKPKDTLMISRTPEVTCVVVDVSHEDPEVKFNWYVDGVEVHNAKTKPREEQYNSTYRVVSVLTVLHQDWLNGKEYKCKVSNKALPAPIEKTISKAKGQPREPQVYTLPPSRDELTKNQVSLTCLVKGFYPSDIAVEWESNGQPENNYKTTPPVLDSDGSFFLYSKLTVDKSRWQQGNVFSCSVMHEALHNHYTQKSLSLSPGGGGGSGGGGSEVQLLESGGGLVQPGGSLRLSCAASGFTFSDYYMTWIRQAPGKGLEWVSSISGGSTYYADSRKGRFTISRDNSENTLYLQMNSLRAEDTAVYYCARDFGVAGWFGQYGMDVWGQGTLVTVSSGGGGSGGGGSGGGGSQSVLTQPPSASGTPGQRVTISCTGSSSNIGAGYDVHWYQQLPGTAPKLLIYRSNQRPSGVPDRFSGSKSGTSASLAISGLRSEDEADYYCSSYAGNYNLVFGGGTKLTVL
B2: PRO003 (bispecific antibody)
chain: EVQLLESGGGLVQPGGSLRLSCAASGFTFSIYAMSWVRQAPGKGLEWVSAISGSGGSTYYADSVKGRFTISRDNSKNTLYLQMNSLRAEDTAVYYCARDFDYWGQGTLVTVTSSGGGGSGGGGSGGGGSQSVLTQPPSASGTPGQRVTISCSGSSSNIGSNYVYWYQQLPGTAPKLLIYGNINRPSGVPDRFSGSKSGTSASLAISGLRSEDEADYYCAAWDDSLNGRVFGGGTKLTVLDKTHTCPPCPAPEAAGAPSVFLFPPKPKDTLMISRTPEVTCVVVDVSHEDPEVKFNWYVDGVEVHNAKTKPREEQYNSTYRVVSVLTVLHQDWLNGKEYKCKVSNKALPAPIEKTISKAKGQPREPQVYTLPPSRDELTKNQVSLTCLVKGFYPSDIAVEWESNGQPENNYKTTPPVLDSDGSFFLYSKLTVDKSRWQQGNVFSCSVMHEALHNHYTQKSLSLSPGGGGGSGGGGSEVQLLESGGGLVQPGGSLRLSCAASGFTFSNAWMNWVRQAPGKGLEWVSSISSSSSYIYYADSVKGRFTISRDNSKNTLYLQMNSLRAEDTAVYYCARAVAAGGMFWGLDQWGQGTLVTVTSSGGGGSGGGGSGGGGSQSVLTQPPSASGTPGQRVTISCSGSRSNIGSNSVHWYQQLPGTAPKLLIYGNSNRPSGVPDRFSGSKSGTSASLAISGLRSEDEADYYCQSYDSSLNDHVVFGGGTKLTVL
B3: PRO004 (bispecific antibody)
chain: EVQLLESGGGLVQPGGSLRLSCAASGFTFSNAWMNWVRQAPGKGLEWVSSISSSSSYIYYADSVKGRFTISRDNSKNTLYLQMNSLRAEDTAVYYCARAVAAGGMFWGLDQWGQGTLVTVTSSGGGGSGGGGSGGGGSQSVLTQPPSASGTPGQRVTISCSGSRSNIGSNSVHWYQQLPGTAPKLLIYGNSNRPSGVPDRFSGSKSGTSASLAISGLRSEDEADYYCQSYDSSLNDHVVFGGGTKLTVLDKTHTCPPCPAPEAAGAPSVFLFPPKPKDTLMISRTPEVTCVVVDVSHEDPEVKFNWYVDGVEVHNAKTKPREEQYNSTYRVVSVLTVLHQDWLNGKEYKCKVSNKALPAPIEKTISKAKGQPREPQVYTLPPSRDELTKNQVSLTCLVKGFYPSDIAVEWESNGQPENNYKTTPPVLDSDGSFFLYSKLTVDKSRWQQGNVFSCSVMHEALHNHYTQKSLSLSPGGGGGSGGGGSEVQLLESGGGLVQPGGSLRLSCAASGFTFSIYAMSWVRQAPGKGLEWVSAISGSGGSTYYADSVKGRFTISRDNSKNTLYLQMNSLRAEDTAVYYCARDFDYWGQGTLVTVTSSGGGGSGGGGSGGGGSQSVLTQPPSASGTPGQRVTISCSGSSSNIGSNYVYWYQQLPGTAPKLLIYGNINRPSGVPDRFSGSKSGTSASLAISGLRSEDEADYYCAAWDDSLNGRVFGGGTKLTVL

biological target: ALK-1/BMPR-2 receptor pair of the PathHunter U2Os dimerization cells (DiscoverX 93-0962C3) (UniProt P37023 22-503; Q13873 27-1038); assay: cell-based or functional assay
Sequence (P37023 22-503, chain 1 of 2): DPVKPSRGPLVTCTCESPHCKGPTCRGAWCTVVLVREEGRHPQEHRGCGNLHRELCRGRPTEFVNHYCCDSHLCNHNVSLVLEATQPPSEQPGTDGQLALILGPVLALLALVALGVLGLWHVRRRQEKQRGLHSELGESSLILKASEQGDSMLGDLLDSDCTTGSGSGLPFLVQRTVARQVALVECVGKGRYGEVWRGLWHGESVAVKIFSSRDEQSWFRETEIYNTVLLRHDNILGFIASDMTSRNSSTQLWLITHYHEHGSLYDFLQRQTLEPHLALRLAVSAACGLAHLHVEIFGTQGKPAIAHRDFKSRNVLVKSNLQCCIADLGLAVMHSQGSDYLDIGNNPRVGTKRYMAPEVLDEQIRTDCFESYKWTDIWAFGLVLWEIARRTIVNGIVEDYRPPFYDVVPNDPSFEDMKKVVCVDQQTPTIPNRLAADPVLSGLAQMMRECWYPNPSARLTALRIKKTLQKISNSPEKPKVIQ
Sequence (Q13873 27-1038, chain 2 of 2): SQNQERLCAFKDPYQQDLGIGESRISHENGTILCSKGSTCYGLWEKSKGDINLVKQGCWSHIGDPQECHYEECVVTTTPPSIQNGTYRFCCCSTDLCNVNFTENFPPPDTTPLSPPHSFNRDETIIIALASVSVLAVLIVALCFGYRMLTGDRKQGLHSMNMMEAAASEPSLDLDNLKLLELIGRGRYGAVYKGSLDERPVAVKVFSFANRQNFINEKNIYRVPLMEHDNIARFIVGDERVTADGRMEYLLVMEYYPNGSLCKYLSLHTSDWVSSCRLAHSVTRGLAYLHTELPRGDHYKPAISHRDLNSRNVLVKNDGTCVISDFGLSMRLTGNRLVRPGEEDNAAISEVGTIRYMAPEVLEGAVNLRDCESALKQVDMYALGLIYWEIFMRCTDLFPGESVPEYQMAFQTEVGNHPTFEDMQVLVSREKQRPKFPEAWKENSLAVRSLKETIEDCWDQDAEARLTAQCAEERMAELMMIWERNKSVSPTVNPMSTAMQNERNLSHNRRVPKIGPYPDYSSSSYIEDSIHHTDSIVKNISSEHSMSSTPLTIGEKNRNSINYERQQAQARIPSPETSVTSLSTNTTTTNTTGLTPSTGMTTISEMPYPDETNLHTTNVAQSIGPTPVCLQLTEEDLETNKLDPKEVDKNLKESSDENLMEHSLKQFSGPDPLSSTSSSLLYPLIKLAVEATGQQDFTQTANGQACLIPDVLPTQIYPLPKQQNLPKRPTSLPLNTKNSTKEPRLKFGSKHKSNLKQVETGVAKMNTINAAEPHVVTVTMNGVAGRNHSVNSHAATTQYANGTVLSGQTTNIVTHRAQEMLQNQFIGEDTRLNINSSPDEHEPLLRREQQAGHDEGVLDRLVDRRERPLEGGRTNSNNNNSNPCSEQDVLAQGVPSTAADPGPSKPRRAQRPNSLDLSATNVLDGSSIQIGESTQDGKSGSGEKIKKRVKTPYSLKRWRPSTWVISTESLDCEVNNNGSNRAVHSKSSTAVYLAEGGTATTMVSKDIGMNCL

Point of comparison: B3, “% Emax BMP9” value 46%. Against it:
- B1 — lower, 35%
- B2 — higher, 47%

Point of comparison: B2, “EC50” value 100 pM. Against it:
- B1 — within 1.5-fold, 75 pM
- B3 — 5-fold higher, 500 pM

Point of comparison: B2, “Emax (RLU)” value 1.25e+06 RLU. Against it:
- B1 — lower, 931000 RLU
- B3 — lower, 1.21e+06 RLU
